The results in this text go back to patent US20060241051A1 (Takeda / Millennium, published 2006).

To fix the notation:
B1: Compound No. 111: [Phe(F5)10]MS10 (peptide)
peptide: YNWNSFGLR[Phe(F5)]-NH2
B2: Compound No. 112: [Cha10]MS10 (peptide)
peptide: YNWNSFGLRX
modifications: Cha10; C-terminal amide
B3: Compound No. 32: Leu-Pro-Asn-MS10 (peptide)
peptide: LPNYNWNSFGLRF-NH2
B4: Compound No. 114: des(1-3)-3-(3-Indolyl)propionyl-MS10 (peptide)
peptide: {Propanoyl(3-indol-3-yl)}-NSFGLRF-NH2
SMILES: CC(C)C[C@H](NC(=O)CNC(=O)[C@H](Cc1ccccc1)NC(=O)[C@H](CO)NC(=O)[C@H](CC(N)=O)NC(=O)CCc1c[nH]c2ccccc12)C(=O)N[C@@H](CCCNC(=N)N)C(=O)N[C@@H](Cc1ccccc1)C(N)=O
B5: Compound No. 387: Dap-[D-Tyr1,Arg(Me)9]MS10 (peptide)
peptide: XYNWNSFGLRF
modifications: N-terminal Dap added before position 1; D-Tyr1; Arg(Me)9 (MS10 numbering); C-terminal amide
B6: Compound No. 79: [Hph10]MS10 (peptide)
peptide: YNWNSFGLRX
modifications: Hph10; C-terminal amide
B7: Compound No. 98: [Lys(Me2)9]MS10 (peptide)
peptide: YNWNSFGL[Lys(Me2)]F-NH2
B8: Compound No. 397: Methylthiocarbamoyl-Sar-[D-Tyr1,Arg(Me)9]MS10 (peptide)
peptide: GYNWNSFGLRF
modifications: N-terminal Methylthiocarbamoyl-Sar added before position 1; D-Tyr1; Arg(Me)9 (MS10 numbering); C-terminal amide
B9: Compound No. 56: [Lys2]MS10 (peptide)
peptide: YKWNSFGLRF-NH2
B10: Compound No. 274: des(1-2)-Acetyl-[Ala3,AzaGly7,Arg(Me)9]MS10 (peptide)
peptide: Ac-ANSF[azaGly]L[Arg(Me)]F-NH2
SMILES: CNC(=N)NCCC[C@H](NC(=O)[C@H](CC(C)C)NC(=O)NNC(=O)[C@H](Cc1ccccc1)NC(=O)[C@H](CO)NC(=O)[C@H](CC(N)=O)NC(=O)[C@H](C)NC(C)=O)C(=O)N[C@@H](Cc1ccccc1)C(N)=O
B11: Compound No. 88: des(4-5)-MS10 (peptide)
peptide: YNWFGLRF-NH2
B12: Compound No. 207: [D-Tyr1,Ser4,Arg(Me)9]MS10 (peptide)
peptide: [dY]NWSSFGL[Arg(Me)]F-NH2
modifications: N-terminus assumed
SMILES: CNC(=N)NCCC[C@H](NC(=O)[C@H](CC(C)C)NC(=O)CNC(=O)[C@H](Cc1ccccc1)NC(=O)[C@H](CO)NC(=O)[C@H](CO)NC(=O)[C@H](Cc1c[nH]c2ccccc12)NC(=O)[C@H](CC(N)=O)NC(=O)[C@H](N)Cc1ccc(O)cc1)C(=O)N[C@@H](Cc1ccccc1)C(N)=O
B13: Compound No. 375: 2-Aminoethyl-Gly-[D-Tyr1,Arg(Me)9]MS10 (peptide)
peptide: {2‑aminoethyl}-G[dY]NWNSFGL[Arg(Me)]F-NH2
modifications: not fully specified (residue 1); printed as 2-Aminoethyl-Gly-[D-Tyr1,Arg(Me)9]MS10
B14: Compound No. 76: [Lys1]MS10 (peptide)
peptide: KNWNSFGLRF-NH2
B15: Compound No. 173: [D-Tyr1,Ala7,Arg(Me)9]MS10 (peptide)
peptide: [dY]NWNSFAL[Arg(Me)]F-NH2
modifications: N-terminus assumed
SMILES: CNC(=N)NCCC[C@H](NC(=O)[C@H](CC(C)C)NC(=O)[C@H](C)NC(=O)[C@H](Cc1ccccc1)NC(=O)[C@H](CO)NC(=O)[C@H](CC(N)=O)NC(=O)[C@H](Cc1c[nH]c2ccccc12)NC(=O)[C@H](CC(N)=O)NC(=O)[C@H](N)Cc1ccc(O)cc1)C(=O)N[C@@H](Cc1ccccc1)C(N)=O
B16: Compound No. 315: des(1)-[D-Asn2,Cha3,AzaGly7,Arg(Me)9]MS10 (peptide)
peptide: [dN][Cha]NSF[azaGly]L[Arg(Me)]F-NH2
modifications: N-terminus assumed
SMILES: CNC(=N)NCCC[C@H](NC(=O)[C@H](CC(C)C)NC(=O)NNC(=O)[C@H](Cc1ccccc1)NC(=O)[C@H](CO)NC(=O)[C@H](CC(N)=O)NC(=O)[C@H](CC1CCCCC1)NC(=O)[C@H](N)CC(N)=O)C(=O)N[C@@H](Cc1ccccc1)C(N)=O
B17: Compound No. 45: [Ala8]MS10 (peptide)
peptide: YNWNSFGARF-NH2
B18: Compound No. 74: [Ser1]MS10 (peptide)
peptide: SNWNSFGLRF-NH2
B19: Compound No. 386: des(1-3)-3-Pyridylpropionyl-[AzaGly7,Arg(Me)9,Trp10]MS10 (peptide)
peptide: {Propanoyl(3-(3-pyridyl))}-NSF[azaGly]L[Arg(Me)]W-NH2
SMILES: CNC(=N)NCCC[C@H](NC(=O)[C@H](CC(C)C)NC(=O)NNC(=O)[C@H](Cc1ccccc1)NC(=O)[C@H](CO)NC(=O)[C@H](CC(N)=O)NC(=O)CCc1cccnc1)C(=O)N[C@@H](Cc1c[nH]c2ccccc12)C(N)=O
B20: Compound No. 87: des(4-5)-Boc-MS10 (peptide)
peptide: Boc-YNWFGLRF-NH2
SMILES: CC(C)C[C@H](NC(=O)CNC(=O)[C@H](Cc1ccccc1)NC(=O)[C@H](Cc1c[nH]c2ccccc12)NC(=O)[C@H](CC(N)=O)NC(=O)[C@H](Cc1ccc(O)cc1)NC(=O)OC(C)(C)C)C(=O)N[C@@H](CCCNC(=N)N)C(=O)N[C@@H](Cc1ccccc1)C(N)=O
B21: Compound No. 172: [D-Tyr1,Cha6,Arg(Me)9]MS10 (peptide)
peptide: YNWNSXGLRF
modifications: D-Tyr1; Cha6; Arg(Me)9; C-terminal amide
B22: Compound No. 385: des(1)-[D-Tyr2,D-Pya(4) 3,AzaGly7,Arg(Me)9,Trp10]MS10 (peptide)
peptide: [dY][d4Pal]NSF[azaGly]L[Arg(Me)]W-NH2
modifications: N-terminus assumed
SMILES: CNC(=N)NCCC[C@H](NC(=O)[C@H](CC(C)C)NC(=O)NNC(=O)[C@H](Cc1ccccc1)NC(=O)[C@H](CO)NC(=O)[C@H](CC(N)=O)NC(=O)[C@@H](Cc1ccncc1)NC(=O)[C@H](N)Cc1ccc(O)cc1)C(=O)N[C@@H](Cc1c[nH]c2ccccc12)C(N)=O

Square brackets hold non-standard residues; d marks the D form. Ends that are not written are not given here. * marks the point of attachment. Propanoyl(3-indol-3-yl) = O=C(CCc1c[nH]c2ccccc12)*; Phe(F5) = N[C@@H](Cc1c(F)c(F)c(F)c(F)c1F)C(=O)O; Propanoyl(3-(3-pyridyl)) = O=C(CCc1cccnc1)*; Arg(Me) = CNC(=N)NCCC[C@H](N)C(=O)O; Lys(Me2) = CN(C)CCCC[C@H](N)C(=O)O; d4Pal = N[C@H](Cc1ccncc1)C(=O)O; Cha = N[C@@H](CC1CCCCC1)C(=O)O; Boc = CC(C)(C)OC(=O)*; azaGly = NNC(=O)O

T1 sequence (Q969F8 whole entry L364H): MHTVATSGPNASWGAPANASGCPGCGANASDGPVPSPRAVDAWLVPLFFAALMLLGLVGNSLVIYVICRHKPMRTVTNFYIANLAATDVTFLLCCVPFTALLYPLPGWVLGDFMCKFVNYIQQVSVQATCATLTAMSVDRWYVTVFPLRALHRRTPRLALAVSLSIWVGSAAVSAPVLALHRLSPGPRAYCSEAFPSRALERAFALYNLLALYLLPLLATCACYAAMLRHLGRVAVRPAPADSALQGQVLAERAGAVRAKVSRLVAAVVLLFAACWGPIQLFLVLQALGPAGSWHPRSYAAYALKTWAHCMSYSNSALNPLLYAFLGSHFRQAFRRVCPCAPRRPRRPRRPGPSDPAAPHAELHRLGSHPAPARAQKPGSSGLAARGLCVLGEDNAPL

The first assay concerns the target T1, human OT7T175 (metastin receptor) (human, UniProt Q969F8 1-398).
T1 construct: expressed on CHO cells (hOT7T175-expressed CHO cells; hOT7T175/CHO); also called hOT7T175; h0T7T175
The assay can be described thus: FMAT competition with Cy-5-labeled metastin (40-54), hOT7T175-expressed CHO cells.
Broadly, the IC50 is the point on the concentration scale where inhibition reaches its midpoint. Low readings indicate greater potency in that assay, high ones weaker potency in that assay. For the molecule B1, the half-inhibitory concentration (IC50) turned out to be 140 nM. This counts as sub-micromolar.
In the case of B2, the IC50 turned out to be 370 nM. Against the preceding molecule, the IC50 is about 2.6-fold higher.
The same measure, in the same setting: to B3 belongs 25 nM; to B4, 550 nM.

In the next assay the target is human OT7T175 (metastin receptor) (human) (UniProt Q969F8). Nature of the assay: cell-based or functional assay.
Chain of human OT7T175 (metastin receptor) (human) (Q969F8 whole entry L364H): as above
B5 gave an intracellular Ca ion level-increasing activity (FLIPR) (specific activity to metastin (1-54)) of 1.
B6: the intracellular Ca ion level-increasing activity (FLIPR) (specific activity to metastin (1-54)) stood at 1.
In turn, B7 had an intracellular Ca ion level-increasing activity (FLIPR) (specific activity to metastin (1-54)) of 0.5.
B8 had an intracellular Ca ion level-increasing activity (FLIPR) (specific activity to metastin (1-54)) of 5.
In turn, B9 gave an intracellular Ca ion level-increasing activity (FLIPR) (specific activity to metastin (1-54)) of 1.
Same read-out and setting: to B10 belongs 1; to B11, 1; to B12, 0.5.
For B13, the intracellular Ca ion level-increasing activity (FLIPR) (specific activity to metastin (1-54)) is 2.
Regarding B14, the intracellular Ca ion level-increasing activity (FLIPR) (specific activity to metastin (1-54)) was 1.
Same read-out and setting: to B15 belongs 1.
B16 came in with an intracellular Ca ion level-increasing activity (FLIPR) (specific activity to metastin (1-54)) of 1.
Regarding B17, the intracellular Ca ion level-increasing activity (FLIPR) (specific activity to metastin (1-54)) turned out to be 1.
As for B18, the intracellular Ca ion level-increasing activity (FLIPR) (specific activity to metastin (1-54)) worked out at 1.
Turning to B19, the intracellular Ca ion level-increasing activity (FLIPR) (specific activity to metastin (1-54)) was found to be 7.
Molecule B20 returned an intracellular Ca ion level-increasing activity (FLIPR) (specific activity to metastin (1-54)) of 1.
With B21, the intracellular Ca ion level-increasing activity (FLIPR) (specific activity to metastin (1-54)) worked out at 1.
The molecule B22 had an intracellular Ca ion level-increasing activity (FLIPR) (specific activity to metastin (1-54)) of 10.

Another assay deals with T1, human OT7T175 (metastin receptor). The assay can be described thus: cell-based or functional assay.
In the case of B1, the “intracellular Ca ion level-increasing activity (FLIPR)” value was 3 specific activity to metastin (1-54).
Turning to B2, the “intracellular Ca ion level-increasing activity (FLIPR)” value was 2 specific activity to metastin (1-54).
Consider B3, for which the “intracellular Ca ion level-increasing activity (FLIPR)” value was 10 specific activity to metastin (1-54).
Same read-out and setting: under B4 stands 3 specific activity to metastin (1-54).
